Experimental data reported in patent US20220256794A1, “TERPENE SYNTHASES AND TRANSPORTERS” (The State of Israel, Ministry of Agriculture & Rural …, priority 2019, published 2022).

B1: 792-3: Cannabis terpene synthase gene product, amino acid SEQ ID NO: 8 (protein)
chain: MSYQVLASSQNDKVSKIVRPTTTYQPSIWGERFLQYSISDQDFSYKKQRVDELKEVVRREVFLECYDNVSYVLKIVDDVQRLGLSYHFENEIEKALQHIYDNTIHQNHKDEDLHDTSTRFRLLRQHGFMVSSNIFKIFKDEQGNFKECLITDILGLLSLYEASHLSYIGENILNEALAFTTTHLHQFVKNEKTHPLSNEVLLALQRPIRKSLERLHARHYISSYENKISHNKTLLELAKLDFNLLQCLHRKELSQISRWWKEIDFVHKLPFARDRIVELYLWLLGVFHEPELSLARIISTKVIALASVADDIYDAYGTFEELELLTESINRWDLNCADQLRPECLQTFYKVLLNCYEEFESELGKEESYKVYYAREAMKRLLGAYFSEARWLHEGYFPSFDEHLKVSLISCGYTMMIVTSLIGMKDCVTKQDFEWLSKDPKIMRDCNILCRFMDDIVSHKFEQQRDHSPSTVESYMRQYGVSEQEACDELRKQVINSWKEINKAFLRPSNVPYPVLSLVLNFSRVMDLLYKDGDGYTHIGKETKNSVVALLIDQIP
modifications: Terpene Synthase Gene Amino acid sequence of the 45 identified gene products
B2: AG046-1: Cannabis terpene synthase gene product, amino acid SEQ ID NO: 36 (protein)
chain: MIITGVISSSTPIFKDQPAAIVRRSGNYKPTLWDAHFFQSLQVIYTEESYGKRINELKEDVRRILEKEAENPLVKLEQINDLSRLGISYHFEDQIKTILNLTFNNNNALWKKDNLYATALHFKLLRQYGFSPVSSEVFNAFKDEKKEFKESLSKDVKGMVCLYEASFYSFRGEPILDEARDFTTKHLKQYLMTRQSQFTRVDHHDDDDHDLVKLVEHALDLPLHWRLPRLEARWFIDMYAERNYDMNPTFLDFAKLDYNFVQSAYQKELKYISRWWSGSRLTERLPFARDRVVEIFYSAVALKYEAEFGFVRTVMTKIGLLLTLMDDIYDVYGTLDELQLFLEAIERWNINELDQLPDYMKILFVAFYNNVNEISYYVLKENGIHTIKYLKKALGDLCKCYMEEAKWFHSGHIPSLEEFIENGWKSITIPLCLIYHYCLITTSITEQDMEHLLQYPTILRVSGTVFRFIDDLGTSSDELERGDNPSSIQCYMREKGVSENESREHIWNLISEGWKEINEVKASNSPYSQVFIESAIDFVRGAMEMYHKGDGFGTNQDRYLKTKVVNMFFDPIPI
modifications: Terpene Synthase Gene Amino acid sequence of the 45 identified gene products

Assay: Terpene synthase activity assay with FPP
Assay type: biochemical
Conditions: TPS expressed in E. coli; 10 μM FPP, overnight at 30° C., SPME GC-MS
Experimental: Putative terpene synthase genes were synthesized by the TWIST Co., and cloned into Novagen pET-28a(+) with a 6×His tag at its' N-terminus. The recombinant plasmid was then sequenced for authentication and transformed into BL21(DE3) pLysS and pLysE strains of E. coli (Agilent Technologies) for heterologous expression. An overnight culture was used to inoculate a 20-200 mL culture, induced with 0.1 mM IPTG at an OD 600 nm >0,8 for initiation of recombinant protein translation then incubated at 18° C. and 250 RPM overnight. The cells were collected by centrifugation and the recombinant enzymes were extracted either as a crude extract or purified on a Ni-NTA agarose resin as previously described [Gonda I. et al., The Plant Journal (2013) 61, 458-472]. […]
For solid-phase microextraction (SPME) analysis, a 57298-U SPME fiber assembly Divinylbenzene/Carboxen/Polydimethylsiloxane (DVB/CAR/PDMS, Supelco) needle size 23 ga, StableFlex, was used with an autosampler and analyzed by GC-MS as previously described [Davidovich-Rikanati R. et al., Nature Biotech (2007) 25:899-901; Davidovich-Rikanati R. et al., Plant J (2008) 56:228-238]. […]

Molecule	Sesquiterpenes produced with FPP
B1	caryophyllene, humulene
B2	bisabolene
